# T1: HOT1 DBD (crystal) (human, UniProt Q6NT76 233-345)
# T1 sequence: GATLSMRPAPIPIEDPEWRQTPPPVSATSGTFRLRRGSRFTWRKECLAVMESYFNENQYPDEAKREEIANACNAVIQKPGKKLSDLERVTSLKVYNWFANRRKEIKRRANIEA
# B1: T1/T2 telomeric crystal duplex (dsDNA)
# DNA 1: CTGTTAGGGTTAGGGTTAG
# DNA 2: TCTAACCCTAACCCTAACA
# Target: T1, HOT1 DBD (crystal)
# Assay: crystal structure
binder,measurement,value
B1,binding result,binds

# — paper PMC3680732
